In one assay the target is T1, LHRH (Rattus norvegicus, UniProt P07490).
T1 construct: from tissue; host or cells: living male rats (in vivo, endogenous hormone)
The assay can be described thus: Serum testosterone RIA in rats immunized with LHRH peptide immunogens (immunocastration). The assay is classed as in vivo, Sprague-Dawley rats, male. The following applies: i.m., serum at weeks 10 or 12. How it is done: B. Protocols for immunization. The LHRH peptide immunogens shown in Tables 2a and 2b were evaluated on groups of 5 to 10 rats as specified by the experimental immunization protocol outlined below and by serological assays for determination of immunogenicity on serum samples:
Blood was collected and processed into serum, and stored prior to ELISA and radioimunoassay (RIA) for determination of serum testosterone values.
D. Determination of immunogen efficacy. Immunogens were evaluated for efficacy by RIA for serum testosterone values. Serum testosterone levels were measured using an RIA kit from Diagnostic Products (Los Angeles, Calif.) according to manufacturer's instructions. The lower detection limit for testosterone ranged from 0.01 to 0.03 nmol/L. Each sample was analyzed in duplicate. Serum samples were scored as being at castration level when the testosterone level was below limits of detection and as “near castration” at <0.1 nmol/L. Results were verified by comparison to testosterone levels in serum from mechanically castrated rats.
E. Results. […] The efficacy of the anti-peptide antibody responses, consequential to the cross-reactivity to natural LHRH, was established by determining serum testosterone levels. Those results are summarized in the right columns of Tables 2a and 2b as numbers of animals having castration level serum testosterone per total animals in the group.

Assay [1] relates to LHRH peptide (SEQ ID NO:77). The assay can be described thus: ELISA of immune rat sera on LHRH peptide-coated plates (immunogenicity). The assay is classed as in vivo, Sprague-Dawley rats, male. The following applies: 25 μg doses on Alum at 0 and 3 weeks; ELISA peptide SEQ ID NO: 28. The method, then:
C. Method for determination of immunogenicity. Antibody activities were determined by ELISA (enzyme-linked immunosorbent assays) using 96-well flat bottom microtiter plates which were coated with the LHRH peptide (SEQ ID NO:77) as immunosorbent. Aliquots (100 μL) of the peptide immunogen solution at a concentration of 5 μg/mL were incubated for 1 hour at 37° C. The plates were blocked by another incubation at 37° C. for 1 hour with a 3% gelatin/PBS solution. The blocked plates were then dried and used for the assay. Aliquots (100 μL) of the test immune sera, starting with a 1:100 dilution in a sample dilution buffer and ten-fold serial dilutions thereafter, were added to the peptide coated plates. The plates were incubated for 1 hour at 37° C.
The plates were washed six times with 0.05% Tween® in PBS. 100 μL of horseradish peroxidase labeled goat-anti-rat IgG antibody was added at appropriate dilutions in conjugate dilution buffer (Phosphate buffer containing,0.5M NaCl, and normal goat serum). The plates were incubated for 1 hour at 37° C. before being washed as above. Aliquots (100 μL) of o-phenylenediamine substrate solution were then added. […] The A492 nm of the contents of each well was read in a plate reader. ELISA titers were calculated based on linear regression analysis of the absorbances, with cutoff A492 nm set at 0.5. […]
Background: In an ELISA, binding on a coated surface is turned into a signal by an enzyme label.

The subject of the next assay is artificial Th epitope. As to the kind of experiment: ELISA of immune rat sera on the Th epitope peptide (antibody specificity). The conditions noted are these: 25 μg doses on Alum at 0 and 3 weeks; sera diluted 1:100; ELISA on respective Th peptide. Type of assay: in vivo, rats.

Marks after values point to notes of the source that are not given here.

Consider 29 (KKKFFFFTKFFTFPVSFD) [compound 29], for which the “no. castrated (animals having castration level serum testosterone per total animals in the group)” value in the assay with LHRH (400 μg/dose, Alum (0,3,6 wpi)) was 5/5; in the assay with LHRH (400 μg/dose, IFA (0,3,6 wpi)) it was 8/10.
As for 30 (KKKLFLLTKLLTLPFSLD) [compound 30], the “no. castrated (animals having castration level serum testosterone per total animals in the group)” value is given as 2/5 with LHRH (400 μg/dose, Alum (0,3,6 wpi)) and 9/10 with LHRH (400 μg/dose, IFA (0,3,6 wpi)).
For the substance 32 (KKKIITITRIITIITTI) [compound 32], the “no. castrated (animals having castration level serum testosterone per total animals in the group)” value with LHRH (25 μg/dose, Alum (0,3 wpi)) was 1/6.
On to 33 (KKKMMTMTRMITMITTID) [compound 33], for which the “no. castrated (animals having castration level serum testosterone per total animals in the group)” value with LHRH (25 μg/dose, Alum (0,3 wpi)) is 5/5.
In the case of 34 (FITMDTKFLLASTHIL) [compound 34], the “no. castrated (animals having castration level serum testosterone per total animals in the group)” value is on record as 1/8 in the assay with LHRH (25 μg/dose, Alum (0,3 wpi)) and 4/6 with LHRH (100 μg/dose, IFA (0,3,6 wpi)).
On to 35 (KKKFITMDTKFLLASTHIL) [compound 35], for which the “no. castrated (animals having castration level serum testosterone per total animals in the group)” value with LHRH (25 μg/dose, Alum (0,3 wpi)) is given as 2/6.
With “37 (DLSDLKGLLLHKLDGLGGEHWSYGLRPG) [compound 37]”, the “no. castrated (animals having castration level serum testosterone per total animals in the group)” value with LHRH (25 μg/dose, Alum (0,3 wpi)) was 0/6.
Still for that read-out and setting: then “38 (EISEIRGIIIHRIEGIGGEHWSYGLRPG) [compound 38]”, with 5/6.
As to “39 (DVSDVKGVVVHKVDGVGGEHWSYGLRPG) [compound 39]”, the “no. castrated (animals having castration level serum testosterone per total animals in the group)” value with LHRH (25 μg/dose, Alum (0,3 wpi)) is 3/6.
Regarding “40 (DFSDFKGFFFHKFDGFGGEHWSYGLRPG) [compound 40]”, in the assay with LHRH (25 μg/dose, Alum (0,3 wpi)), the “no. castrated (animals having castration level serum testosterone per total animals in the group)” value is reported as 4/8.
For the substance “41 (ISEIKGVIVHKIEGIGGEHWSYGLRPG) [compound 41]”, the “no. castrated (animals having castration level serum testosterone per total animals in the group)” value with LHRH (25 μg/dose, Alum (0,3 wpi)) is listed as 6/6. For the same substance, the “LHRH Reactivity: number of animals with anti-LHRH titers >1:1000/total animals immunized” value in assay [1] is given as 6/6. In the assay on artificial Th epitope, the “Th Reactivity: number of animals with anti-Th reactivity >0.100 A490/total animals immunized” value is listed as 0/6^c.
In the case of “42 (MTEIRTVIVTRMETMGGEHWSYGLRPG) [compound 42]”, the “no. castrated (animals having castration level serum testosterone per total animals in the group)” value with LHRH (25 μg/dose, Alum (0,3 wpi)) is 6/6.
In the case of “43 (LSEIKGVIVHKLEGVGGEHWSYGLRPG) [compound 43]”, the “no. castrated (animals having castration level serum testosterone per total animals in the group)” value with LHRH (25 μg/dose, Alum (0,3 wpi)) is reported as 14/14; with LHRH (100 μg/dose, IFA (0,3,6 wpi)), 6/6.
Consider “47 (MSEIKGVIVHKLEGMGGEHWSYGLRPG) [compound 47]”, for which the “no. castrated (animals having castration level serum testosterone per total animals in the group)” value in the assay with LHRH (25 μg/dose, Alum (0,3 wpi)) is on record as 2/6.
Consider “48 (LTEMRTVIVTRMETVGGEHWSYGLRPG) [compound 48]”, for which, in the assay with LHRH (25 μg/dose, Alum (0,3 wpi)), the “no. castrated (animals having castration level serum testosterone per total animals in the group)” value is recorded as 1/6.
With “54 (ISMTEIRTVIVTRMETMLFGGEHWSYGLRPG) [compound 54]”, the “no. castrated (animals having castration level serum testosterone per total animals in the group)” value with LHRH (25 μg/dose, Alum (0,3 wpi)) was 0/8.
